Values belong to the binder of their own block, whether it stands above or below them.
Target: cathepsin B (human, UniProt P07858 80-333)
Assay: cell-based or functional assay

B1: IGFBP-2 C-terminal fragment (aas 207-328 of SEQ ID NO: 3) (other)
chain: IASKGGKHHLGLEEPKKLRPPPARTPCQQELDQVLERISTMRLPDERGPLEHLYSLHIPNCDKHGLYNLKQCKMSLNGQRGECWCVNPNTGKLIQGAPTIRGDPECHLFYNEQQEARGVHTQRMQDPWSHPQFEKTGHHHHHHHHGGQ
- inhibition of intracellular cathepsin B activity (Magic Red) in U87MG cells, overnight incubation with 20 nM protein: ~50%
- inhibition of secreted cathepsin B activity in U87MG CM, overnight incubation with 20 nM protein: ~70%

B3: IGFBP-2 full-length protein (aas 1-328), produced at BRI-NRC (other)
chain: MLPRVGCPALPLPPPPLLPLLPLLLLLLGASGGGGGARAEVLFRCPPCTPERLAACGPPPVAPPAAVAAVAGGARMPCAELVREPGCGCCSVCARLEGEACGVYTPRCGQGLRCYPHPGSELPLQALVMGEGTCEKRRDAEYGASPEQVADNGDDHSEGGLVENHVDSTMNMLGGGGSAGRKPLKSGMKELAVFREKVTEQHRQMGKGGKHHLGLEEPKKLRPPPARTPCQQELDQVLERISTMRLPDERGPLEHLYSLHIPNCDKHGLYNLKQCKMSLNGQRGECWCVNPNTGKLIQGAPTIRGDPECHLFYNEQQEARGVHTQRMQGSGWSHPQFEKTGHHHHHHHHGGQ
- inhibition of intracellular cathepsin B activity (Magic Red) in U87MG cells, overnight incubation with 20 nM protein: ~50%
- inhibition of secreted cathepsin B activity in U87MG CM, overnight incubation with 20 nM protein: ~60%

B5: IGFBP-2 (from R&D systems) (other)
chain: MLPRVGCPALPLPPPPLLPLLPLLLLLLGASGGGGGARAEVLFRCPPCTPERLAACGPPPVAPPAAVAAVAGGARMPCAELVREPGCGCCSVCARLEGEACGVYTPRCGQGLRCYPHPGSELPLQALVMGEGTCEKRRDAEYGASPEQVADNGDDHSEGGLVENHVDSTMNMLGGGGSAGRKPLKSGMKELAVFREKVTEQHRQMGKGGKHHLGLEEPKKLRPPPARTPCQQELDQVLERISTMRLPDERGPLEHLYSLHIPNCDKHGLYNLKQCKMSLNGQRGECWCVNPNTGKLIQGAPTIRGDPECHLFYNEQQEARGVHTQRMQ
- inhibition of intracellular cathepsin B activity (Magic Red) in U87MG cells, overnight incubation with 20 nM protein: ~50%

B6: CIBP6 (aas 151-240) (other)
chain: IARNSAGVQDTEMGPCRRHLDSVLQQLQTEVYRGAQTLYVPNCDHRGFYRKRQCRSSQGQRRGPCWCVDRMGKSLPGSPDGNGSSSCPTGSSGSSTGHHHHHHHHG
- inhibition of secreted cathepsin B activity in U87MG CM, overnight incubation with 20 nM protein: ~60%

Now from value to binder:

- inhibition of secreted cathepsin B activity in U87MG CM, overnight incubation with 20 nM protein: ~60%
B2: IGFBP-6 (from R&D systems) (other)
chain: RCPGCGQGVQAGCPGGCVEEEDGGSPAEGCAEAEGCLRREGQECGVYTPNCAPGLQCHPPKDDEAPLRALLLGRGRCLPARAPAVAEENPKESKPQAGTARPQDVNRRDQQRNPGTSTTPSQPNSAGVQDTEMGPCRRHLDSVLQQLQTEVYRGAQTLYVPNCDHRGFYRKRQCRSSQGQRRGPCWCVDRMGKSLPGSPDGNGSSSCPTGSSG

- inhibition of intracellular cathepsin B activity (Magic Red) in U87MG cells, overnight incubation with 20 nM protein: ~50%
B4: IGFBP-5 C-terminal fragment (aas 177-272) (other)
chain: IASIISAPEMRQESEQGPCRRHMEASLQELKASPRMVPRAVYLPNCDRKGFYKRKQCKPSRGRKRGICWCVDKYGMKLPGMEYVDGDFQCHTFDSSNVEDPWSHPQFEKTGHHHHHHHHGGQ

— US20160082083A1 (NATIONAL RESEARCH COUNCIL OF CANADA, published 2016)
